What was measured:
[1] = molecular target: NPM1^mutB2 (Lys and Arg to Ala in the B2-tract) (UniProt P06748)
[2] = molecular target: SURF6-N (N-terminal segment of Surfeit locus protein 6, residues 1-182) (UniProt O75683)
UniProt O75683, sequence (O75683 1-182): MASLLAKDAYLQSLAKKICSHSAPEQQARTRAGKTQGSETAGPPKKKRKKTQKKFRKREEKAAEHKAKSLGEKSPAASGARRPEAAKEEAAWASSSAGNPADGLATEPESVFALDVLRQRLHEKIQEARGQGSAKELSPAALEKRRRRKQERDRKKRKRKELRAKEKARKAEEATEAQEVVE

| threshold SURF6-N concentration for heterotypic LLPS, NPM1 construct at 20 µM (turbidity) [1] [µM] | threshold concentration for heterotypic LLPS with SURF6-N (turbidity, Fig. 2c) [2] [µM] | Substance |
| --- | --- | --- |
| 60 |  | NPM1^mutB2 (Lys and Arg to Ala in the B2-tract) (from UniProt P06748 1-294) (natural protein) |
|  | 30 | NPM1^N188 (NPM1 truncation that lacks the CTD plus the B2-tract) (domain or fragment) |

— article PMC5827731
